Data published in patent publication US20070098693A1, “Methods for enhancing engraftment of purified hematopoietic stem cells in allogenic recipients” (priority 2003, published 2007).
Where “and” joins values, the source holds several entries; their conditions need not be identical. Identical values can stand only once.

Experiments:
FC population in PB = assay: Flt3-ligand treatment of mice, subtypes in the mobilized FC population in PB; type: in vivo, B10.BR mice
Protocol: Flt3-ligand treatment of mice. Recombinant human Flt-3 Ligand (FL, kindly provided by Amgen, Seattle, Wash.) was diluted in sterile, filtered, endotoxin-free water at a concentration of 100 μg/ml. Donor B10.BR mice were subcutaneously injected with 10 μg of FL daily for 10 days. B10.BR control mice were injected with saline only. At the end of the treatment, peripheral blood was harvested and collected into heparinized tubes.
Phenotypic analysis of sorted FC. Sorted FC isolated from fresh BMC or FL-mobilized peripheral blood, with a purity ranging from 94 to 98%, were incubated with Fc receptor block (anti-CD16/CD32) before staining with different lineage specific markers, including anti-CD4, CD11c, B220, NK1.1, DX5, CD14, Gr1, and CD19. During reanalysis of sorted FC, less than 1% of contaminating T cells (TCRαβ FITC and TCRγδFITC) were detected, which therefore allowed the use of FITC-conjugated specific markers for further analysis. To validate the specificity of staining, various conjugates of the same antibody were used, including CD11c, CD4 and CD19 conjugated to FITC and APC, as well as B220 conjugated with PerCP, APC, or FITC (not shown). To analyze the subtypes of DC in the sorted FC population, sorted FC were blocked and stained with CD11b FITC, CD11c APC and B220 PerCP mAbs to determine the presence of myeloid pre-DC (CD11c^+/B220^−/CD11b^+), p-preDC (CD11c^dim/B220^+/CD11b^−), the common precursor population for DC (CD11c^+/B220^+/CD11b^+) or mature lymphoid DC (CD8α^+/CD11c^+/CD11b^−/B220^−). The cells were washed twice in CSM, and analyzed on a FACS Calibur using Cell Quest Software (Becton Dickinson, Mountainview, Calif.).

p-preDC from cultured BM = assay: Culture of BMC with FL for 10 days, expansion of p-preDC; type: cell-based, mice; details: 10 days in culture with FL, n=4
Protocol: (§1) Culture of BMC with FL. BMC were resuspended at 10^6 cells/ml in culture medium consisting of RPMI 1640 (Gibco), 10% FBS (Gibco), 1 mM Sodium pyruvate (Gibco), 10 mM Hepes (Gibco), 2 mM L-Glutamine (Gibco), Penicillin 100 U/mL, 100 μg/mL Streptomycin, (Gibco), and 10^−5 M 2-mercaptoethanol (Sigma), supplemented with human FL (100 ng/ml, generous gift from Amgen, Seattle, Wash.). Every 5 days of culture, half of the medium was replaced by fresh cytokine-supplemented culture medium according to a protocol previously described^30.
Cell sorting. HSC, FC, and p-preDC were sorted as previously described^9,30,49. HSC were sorted for Sca-1^+c-Kit^+Lin^− expression, FC were sorted for CD8α^+/TCRαβ^−/TCRγδ^− expression, and p-preDC were sorted for CD11c^dim/CD11b^−/B220^+ expression. Briefly, BMC were incubated with Abs on ice for 30 minutes, cells were washed twice in the CSM, filtered, and resuspended to a final concentration of 2.5×10^6 cells/mL in the CSM for cell sorting. The isolation of the cell populations was performed on FACSVantage Flow Cytometers (Becton Dickinson). The populations of interest were isolated from the live lymphoid gate, and after reanalysis, only cells with a purity of >94% were used.

FL-derived p-preDC = assay: Cytokine production by sorted FL-derived p-preDC (ELISA); type: cell-based, mice; details: p-preDC from FL bone marrow culture, overnight culture
Protocol: as §1
CpG oligodeoxynucleotides (ODN) stimulation. Sorted p-preDC or FC were cultured for 18 hours at 10^5 cells/200 μL in 96 well round-bottom culture plates in culture medium in the presence or absence of Toll-like receptor (TLR)-9 ligand, CPG-ODN 1668 (TCCATGACGTTCCGATGCT) (SEQ ID NO. 1) (GibcoBRL Custom Primers) at 1 μM, TLR-4 ligand, LPS from Escherichia coli (Sigma, MO, USA) at 10 μg/ml, as previously described^30. CpG or LPS-treated or untreated cells were subsequently assayed for: 1) the expression of DC activation/maturation cell surface markers by FACS, 2) their survival rate by 7AAD staining, or 3) morphological appearance by Wright Giemsa staining on cytospins. […]
Cytokine production by ELISA. […] The amount of cytokine produced was determined by 1) ELISA kits for mouse IFN-α (R&D system) and mouse TNF-α (Biosource International), and 2). […]

[1] = mice treated with FL for 10 days (data not shown)
[2] = mice treated with FL for 10 days, sorted FC from PB

B1: FL: Recombinant human Flt-3 Ligand (FL, kindly provided by Amgen, Seattle, Wash.) (protein, UniProt P49771 27-235, looked up)
Fms-related tyrosine kinase 3 …: TQDCSFQHSPISSDFAVKIRELSDYLLQDYPVTVASNLQDEELCGGLWRLVLAQRWMERLKTVAGSKMQGLLERVNTEIHFVTKCAFQPPPSCLRFVQTNISRLLQETSEQLVALKPWITRQNFSRCLELQCQPDSSTLPPPWSPRPLEATAPTAPQPPLLLLLLLPVGLLLLAAAWCLHWQRTRRRTPRPGEQVPPVPSPQDLLLVEH
expansion of FC in PB (FC population in PB; FL-treatment of mice): significantly expands | FL-FC in the PB expressing CD14 (FC population in PB; [1]): none | FL-FC in the PB expressing CD19 (FC population in PB; [1]): none | CD11c^bright population (mature DC) in FL-FC (FC population in PB; [2]): 20% | CD11c^dim population (p-preDC phenotype) in FL-FC (FC population in PB; [2]): 60% and 60-65% | FL-FC in the PB expressing CD11c (FC population in PB; [2]): 85-90% | FL-FC in the PB expressing NK1.1 (FC population in PB; [2]): 5-7% | increase in FL-p-preDC from cultured BM (p-preDC from cultured BM): 17 fold | IFN-α production by FL-derived p-preDC (FL-derived p-preDC): also produced IFN-α
